B1: rLG3: recombinant His6-tagged LG3 domain, residues 1128-1364 of human laminin α3 chain (protein, listed as Homo sapiens)
chain: VRLNDTVGVTKKCSEDWKLVRSASFSRGGQLSFTDLGLPPTDHLQASFGFQTFQPSGILLDHQTWTRNLQVTLEDGYIELSTSDSGGPIFKSPQTYMDGLLHYVSVISDNSGLRLLIDDQLLRNSKRLKHISSSRQSLRLGGSNFEGCISNVFVQRLSLSPEVLDLTSNSLKRDVSLGGCSLNKPPFLMLLKGSTRFNKTKTFRINQLLQDTPVASPRSVKVWQDACSPLPKTQANH
modifications: His6 tag
notes: recombinant His6-tagged LG3 domain, residues 1128-1364 of human laminin α3 chain

Assays:
HOK-16B cells [1] = test: Cell adhesion assay on coated plates (crystal violet absorbance at 570 nm / cell counting); format: cell-based, human
Procedure: The cell adhesion assay was performed according to a method reported by Okazaki et al. (J. Biol. Chem., 277:37070, 2002). In detail, 24-well culture plates (Nunc, Roskilde, Denmark) were coated with various amounts of rLG proteins at 4° C. overnight. The peptides were also coated on plates by drying overnight. The substrate-coated on the plates were blocked by adding 1% heat-inactivated bovine serum albumin (BSA) in PBS for 1 h at 37° C. and washed twice with PBS. The cells in the Experimental Example 1, detached by 0.05% tyrpsin and 0.53 mM EDTA in PBS and resuspended in culture media, were added (1×10^5 cells/500 μl) to each plate and incubated for 1 h at 37° C. After incubation, unattached cells were removed by rinsing twice with PBS. The attached cells were fixed with 10% formalin in PBS for 15 min, rinsed twice with PBS, and stained with 0.5% crystal violet for 1 h. The plates were gently rinsed with DDW three times and lysed with 2% SDS for 5 min. Absorbance was measured at 570 nm in a Bio-Rad Model 550 microplate reader (BioRad).
The cell adhesion and spreading activities on peptide-coated plates were examined using HOK-16B cells by the same method as Experimental Example 2. 24-well plates were coated with 10, 20, 30, 40 and 50 μg/well peptides P1 to P5, respectively. HOK-16B cells were added to peptide-coated plates and cultured for 1 h in serum-free medium for 1 hr. After the unbound cells were washed off, adherent cells were fixed and stained with crystal violet, and then the stained cells were analyzed. Absorbance was measured at 570 nm in a microplate reader. BSA and the rLG3 were used as negative control and positive control, respectively.
It was observed that peptide P4 promotes strong cell adhesion and spreading activities and binds to integrin α3β1 in the Example 4. Therefore, to determine the biologically active core sequences in peptide P4, five synthetic peptides (P4 D-I to P4 D-V), which are C-terminal truncated peptides from the peptide P4, and six synthetic peptides (P4 D-N1 to P4 D-N6), which are N-terminal truncated peptides from the peptide P4 were prepared (FIG. 6A) and examined for HOK-16B cell adhesion and spreading activities on peptide-coated plates by the present inventors. 24-well plates were coated with 10 μg/well C-terminal truncated peptides or N-terminal truncated peptides, and HOK-16B cells were added to the plates, and then cultured in serum-free medium for 1 hr. After the unbound cells were washed off, the adherent cells were fixed to stain with crystal violet, and the stained cells were analyzed. Absorbance was measured at 570 nm in a microplate reader. Peptide P4 and BSA were used as the positive and negative controls, respectively.
24-well plates were coated with 10 μg/well peptides, and HOK-16B cells were added to the plates, and then cultured in serum-free medium for 1 hr. After the unbound cells were washed off, the adherent cells were fixed to stain with crystal violet, and the stained cells were analyzed. Peptide P4 and BSA were used as the positive and negative controls, respectively. The results were expressed as mean ±SD of the four independent experiments.

HOK-16B cells [2] = test: Cell spreading activity assay on coated plates; format: cell-based, human; conditions: spreading cells divided by total bound cells, coated plates
Procedure: To identify spreading cells, attached cells were fixed with 10% formalin in PBS for 15 min, rinsed twice with PBS, and stained with 0.005% crystal violet for 1 h. The plates were then gently rinsed with DDW. To ensure a representative count, each plate was divided into quarters, two fields per quarter were photographed using an Olympus BX51 microscope at 100× magnification. Cells that had adopted a flattened, polygonal shape, with filopodia-and lamellipodia-like extensions were considered to be spreading cells. In contrast, cells that resisted being washed and remained tethered to the plate surface were considered to be non-spreading cells.
To examine the adhesion activity of peptide P4 in detail, the inventors examined whether the adherent cells were tethered to the substratum or spread over the substratum. The BSA and rLG3 were used as the negative control and positive control, respectively, the percentage of cells displaying a spreading morphology was quantified by dividing the number of spreading cells by the total number of bound cells.

integrin α3β1 = target: T1, integrin α3β1 (Homo sapiens, UniProt P05556+P26006); test: Adhesion activity inhibition assay with function-blocking anti-integrin mAbs or EDTA; format: cell-based; conditions: 25 μg/ml rLG3 or 10 μg/well peptide P4 coating; for inhibition of cell adhesion activity by anti-integrin β1 antibody: 5 μg/ml mAb (6S6) preincubation 30 min; for inhibition of cell adhesion activity by anti-integrin α3 antibody: 5 μg/ml mAb (P1B5) preincubation 30 min; for effect of EDTA on cell adhesion: 5 mM EDTA preincubation 30 min
T1 construct: it is confirmed that the HOK-16B cells expressed several integrins, including α3β1, α6β1, and α6β4; endogenous in cells; host or cells: HOK-16B (HPV-16-immortalized human oral keratinocytes)
T1 sequence (P26006 33-872 limits assumed): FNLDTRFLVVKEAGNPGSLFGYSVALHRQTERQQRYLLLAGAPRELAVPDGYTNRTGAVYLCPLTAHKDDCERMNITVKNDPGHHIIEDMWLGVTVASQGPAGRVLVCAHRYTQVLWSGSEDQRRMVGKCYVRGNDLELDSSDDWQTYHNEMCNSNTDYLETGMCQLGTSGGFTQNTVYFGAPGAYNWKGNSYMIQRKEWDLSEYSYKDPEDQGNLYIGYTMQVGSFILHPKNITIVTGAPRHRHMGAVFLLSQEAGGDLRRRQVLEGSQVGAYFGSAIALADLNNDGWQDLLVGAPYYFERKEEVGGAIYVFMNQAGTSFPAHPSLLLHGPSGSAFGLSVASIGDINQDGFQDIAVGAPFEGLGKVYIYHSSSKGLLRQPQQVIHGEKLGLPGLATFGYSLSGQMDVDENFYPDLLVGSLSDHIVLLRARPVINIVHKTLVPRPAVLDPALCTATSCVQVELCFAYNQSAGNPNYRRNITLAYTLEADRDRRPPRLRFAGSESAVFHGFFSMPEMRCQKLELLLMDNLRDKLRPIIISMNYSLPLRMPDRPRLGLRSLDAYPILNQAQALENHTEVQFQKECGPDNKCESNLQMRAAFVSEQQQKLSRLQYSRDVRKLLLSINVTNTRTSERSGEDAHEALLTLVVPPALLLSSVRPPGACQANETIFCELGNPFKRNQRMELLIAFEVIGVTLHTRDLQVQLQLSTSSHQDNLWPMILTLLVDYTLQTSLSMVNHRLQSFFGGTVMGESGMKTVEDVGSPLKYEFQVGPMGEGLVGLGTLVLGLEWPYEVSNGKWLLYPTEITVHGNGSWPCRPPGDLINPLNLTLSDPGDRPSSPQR
T1 sequence (P26006 873-1051 limits assumed): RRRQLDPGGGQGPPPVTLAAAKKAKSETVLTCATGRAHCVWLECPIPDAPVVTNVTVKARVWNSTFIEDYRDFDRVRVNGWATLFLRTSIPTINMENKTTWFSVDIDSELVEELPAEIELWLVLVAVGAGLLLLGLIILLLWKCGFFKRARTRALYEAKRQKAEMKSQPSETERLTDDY
T1 sequence (P05556 21-798): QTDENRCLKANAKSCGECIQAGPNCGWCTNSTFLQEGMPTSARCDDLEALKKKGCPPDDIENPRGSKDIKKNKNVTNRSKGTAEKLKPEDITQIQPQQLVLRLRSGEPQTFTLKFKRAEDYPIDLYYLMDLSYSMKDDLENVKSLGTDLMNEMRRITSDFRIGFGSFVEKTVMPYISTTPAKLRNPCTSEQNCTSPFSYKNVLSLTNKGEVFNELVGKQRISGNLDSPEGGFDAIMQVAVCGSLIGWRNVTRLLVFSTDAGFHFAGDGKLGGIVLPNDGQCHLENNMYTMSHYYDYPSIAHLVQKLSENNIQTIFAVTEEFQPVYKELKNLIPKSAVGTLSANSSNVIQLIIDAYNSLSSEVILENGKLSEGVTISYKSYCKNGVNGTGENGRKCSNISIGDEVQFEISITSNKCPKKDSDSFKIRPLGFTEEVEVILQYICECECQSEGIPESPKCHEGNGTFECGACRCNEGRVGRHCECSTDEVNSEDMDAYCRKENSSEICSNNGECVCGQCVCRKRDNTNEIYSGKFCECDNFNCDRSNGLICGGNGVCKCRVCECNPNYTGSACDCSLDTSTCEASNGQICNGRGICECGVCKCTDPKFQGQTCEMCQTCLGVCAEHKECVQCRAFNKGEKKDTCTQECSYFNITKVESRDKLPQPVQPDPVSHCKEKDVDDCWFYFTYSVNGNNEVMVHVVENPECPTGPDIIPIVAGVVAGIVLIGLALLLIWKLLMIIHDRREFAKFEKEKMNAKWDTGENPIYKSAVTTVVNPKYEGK
Procedure: To identify the receptor of the HOK-16B cells for rLG3 protein and peptide P4, 5 μg/ml of mAbs to different types of integrins or 5 mM EDTA were preincubated individually with HOK-16B cells in 0.5 ml incubation solution (2×10^5 cells/ml) for 30 min at 37° C. The preincubated cells were then transferred onto plates precoated with either 25 μg/ml of rLG3 protein or 10 μg/well of peptide P4 and incubated for 1 h at 37° C. Attached cells were then quantified by the cell adhesion assay described above in the Experimental Example 2, and cell adhesion activity inhibition rate were measured.
Meanwhile, the ligand-integrin interaction were known to require a divalent cation. To determine the role of cations in the interaction, the present inventors examined the effect of metal-chelating reagent, EDTA, on HOK-16B cell adhesion to the rLG3- and peptide P4-coated plates. HOK-16B cells were preincubated with 5 mM EDTA or 5 μg/ml function-blocking mAbs (Chemicon Temecula, CA) against integrin α3 (P1B5), β1 (6S6), α6 (NK I-GoH3) subunits for 30 min at 37° C. and plated on 25 μg/ml rLG3-precoated plate, and then cultured for 1 hr. After the unbound cells were washed off, the adherent cells were fixed to stain with crystal violet, and the stained cells were analyzed. The average adhesion activity of control cultures (HOK-16B cells preincubated without EDTA or integrin antibodies) were considered 100%.

Molecule	coating concentration at which maximum cell adhesion was obtained (HOK-16B cells [1]; HOK-16B cells, peptide-coated 24-well plates)	cell adhesion activity of synthetic peptides (HOK-16B cells [1]; HOK-16B cells, plates coated with 10-50 μg/well peptide, 1 h, serum-free medium)	HOK-16B cells displaying a spreading morphology (HOK-16B cells [2])	inhibition of cell adhesion activity by anti-integrin β1 antibody (integrin α3β1)	inhibition of cell adhesion activity by anti-integrin α3 antibody (integrin α3β1)	effect of EDTA on cell adhesion (integrin α3β1)	reduction of the level of cell adhesion compared to the 5 μg/ml laminin-coated control (HOK-16B cells [1]; 50 μg/ml rLG3 protein coating)	cell adhesion activity of rLG proteins (HOK-16B cells [1]; HOK-16B cells on rLG protein-coated plates, 1 h, compared to BSA control)	coating concentration at which maximum adhesion occurs (HOK-16B cells [1]; HOK-16B cells, rLG protein-coated plates)
PPFLMLLKGSTR [peptide P4]	≥ 10 μg/well	strong dose-dependent cell adhesion activity	35%	54%	49%	decrease in cell adhesion			
B1			47%	71%	71%	almost completely inhibited	approximately 45%	exhibited the adhesive activity	25 µg/mL

Reference: patent US7517654B2, “Peptide and a derivative thereof promoting cell adhesion and spreading” (Seoul National University Industry Foundation, priority 2004, dated 2009)
